Marks after values point to notes of the source that are not given here.
Key:
[1] = target: T1, sEGFR (recombinant extracellular domain of the wild-type EGFR) (Homo sapiens, UniProt P00533); test: ELISA on sEGFR coated plates; type: binding
T1 construct: sEGFR is the recombinant extracellular domain (amino acids 1-621) of the wild-type EGFR); host or cells: CHO cells
Experimental: Two types of ELISA were used to determine the specificity of the antibodies. […] Growth Factors. 18, 11-29). Antibodies were added to wells in triplicate at increasing concentration in 2% HSA in phosphate-buffered saline (PBS).

[2] = target: T2, biotinylated de2-7 specific peptide (Homo sapiens, UniProt P00533, DELINS30-297G); test: ELISA on de2-7 junctional peptide; type: binding
T2 construct: purchased Auspep, Melbourne, Australia; host or cells: chemical synthesis (Fmoc)
Excerpt: In the second assay, the biotinylated de2-7 specific peptide (Biotin […] (SEQ ID NO:5)) was bound to ELISA plates precoated with streptavidin (Pierce, Rockford, Ill.). Antibodies were bound and detected as in the first assay.

[3] = target: T3, Peptide C (C-terminal biotinylated de2-7 peptide) (Homo sapiens, UniProt P00533, DELINS30-297G); test: BIAcore with immobilized Peptide C; type: binding; conditions: mAbL8A4 even at 6.25 nM, mAb806 up to 100 nM
T3 construct: purchased Biosource, Camarillo, Calif
Experimental: Peptide C was immobilized on a Streptavidin microsensor chip at a surface density of 350RU (+/−30RU). Serial dilutions of mAbs were tested for reactivity with the peptide. Blocking experiments using non-biotinylated peptide were performed to assess specificity.

denaturated sEGFR = target: T4, denaturated sEGFR (Homo sapiens, UniProt P00533); test: BIAcore with immobilized sEGFR; type: binding
T4 construct: sEGFR is the recombinant extracellular domain (amino acids 1-621) of the wild-type EGFR); host or cells: CHO cells
Experimental: In a second set of BIAcore experiments, sEGFR was immobilized on a CM microsensor chip at a surface density of ˜4000RU. Serial dilutions of mAbs were tested for reactivity with sEGFR.

[4] = test system: panel of 12 different malignancies; test: immunohistochemistry of tumor panel; type: binding, human
Experimental: (§1) Immunohistochemical analysis was performed using […] sections of fresh frozen tissue applied to histology slides and fixed for 10 minutes in cold acetone. Bound primary antibody was detected with biotinylated horse anti-mouse antibody followed by an avidin-biotin-complex reaction. Diaminobenzidine tetrahydrochloride (DAB) was used as chromogen. The extent of the immunohistochemical reactivity in tissues was estimated by light microscopy and graded according to the number of immunoreactive cells in 25% increments as follows:
The extent of de2-7 EGFR in other tumor types was examined using a panel of 12 different malignancies. […] This staining was strongly dependent on antibody concentration used and was considered nonspecific background reactivity.

[5] = test system: glioblastomas not preselected for EGFR status; test: immunohistochemistry of 46 unselected glioblastomas; type: binding, human
Experimental: as §1
The 528 antibody was strongly and homogeneously positive in all samples except two (Nos. 27 and 29) (44/46, 95.7%).

[6] = test system: U87MG.DK brain xenografts; test: intracranial glioma xenograft treatment; type: in vivo, nude mice; conditions: i.p. day 0 through 14
[7] = target: T5, EGFR from U87MG.wtEGFR and A431 cells (Homo sapiens, UniProt P00533); test: immunoprecipitation and Endo H digestion; type: binding; conditions: majority / bulk of the material
T5 construct: endogenous in cells; host or cells: A431 (endogenous, amplified gene) and U87MG.wtEGFR (U87MG transfected with wtEGFR)
Experimental: This possibility was tested by immunoprecipitating the EGFR from different cells lines labelled overnight with ^35S methionine/cysteine and then subjecting the resultant precipitates to Endoglycosidase H (Endo H) digestion. This enzyme preferentially removes high mannose type carbohydrates (i.e. immature glycosylation) from proteins while leaving complex carbohydrates (i.e. mature glycosylation) intact.

[8] = target: T6, denatured soluble domain of the EGFR (sEGFR) (Homo sapiens, UniProt P00533); test: competition ELISA with biotinylated mAb806; type: binding; conditions: after unlabeled blocking antibody
T6 construct: sEGFR is the recombinant extracellular domain (amino acids 1-621) of the wild-type EGFR); host or cells: CHO cells
Experimental: Briefly, the denatured soluble domain of the EGFR (sEGFR) was coated on to ELISA plates. The unlabeled 124 or 1133 antibodies were then added across the plate in increasing concentrations.

B1: mAb806: murine IgG2b monoclonal antibody, clone 806, ATCC PTA-3858; VH SEQ ID NO:2, VL SEQ ID NO:4 (antibody, listed as Mus musculus, V domains shown)
VH: MRVLILLWLFTAFPGVLSDVQLQESGPSLVKPSQSLSLTCTVTGYSITSDFAWNWIRQFPGNKLEWMGYISYSGNTRYNPSLKSRISITRDTSKNQFFLQLNSVTIEDTATYYCVTAGRGFPYWGQGTLVTVSA
VL: MVSTAQFLAFLLLWFPGARCDILMTQSPSSMSVSLGDTVSITCHSSQDINSNIGWLQQRPGKSFKGLIYHGTNLDDEVPSRFSGSGSGADYSLTISSLESEDFADYYCVQYAQFPWTFGGGTKLEIKR
- inhibition of binding to immobilized sEGFR by sEGFR in solution ([1]; ELISA): unable to inhibit
- binding to immobilized wild-type sEGFR ([1]; ELISA, up to 10 μg/ml): dose-dependent and saturating binding curves
- inhibition of binding to immobilized sEGFR by denatured sEGFR in solution ([1]; sEGFR heated 10 min at 95° C.): able to inhibit
- binding to the unique de2-7 EGFR peptide [2]: Neither mAb806 or the 528 antibody bound to the peptide
- reactivity with Peptide C [3]: did not show detectable specific reactivity
- reactivity with denaturated sEGFR (denaturated sEGFR): strongly reactive
- positive tumors / tumors tested ([4]; Colonic carcinoma): 0/10
- positive tumors / tumors tested ([4]; Head + neck cancer (sqcc)): 7/11
- positive tumors / tumors tested ([4]; Leiomyosarcoma): 0/5
- positive tumors / tumors tested ([4]; Liposarcoma): 0/5*
- positive tumors / tumors tested ([4]; Lung (sqcc, adeno, neuroend)): 6/12
- positive tumors / tumors tested ([4]; Malignant melanoma metastases): 0/10
- positive tumors / tumors tested ([4]; Mammary gland): 1/10
- positive tumors / tumors tested ([4]; Mfh Malignant fibrous histiocytoma): 0/5*
- positive tumors / tumors tested ([4]; Ovary (serous-papillary)): 0/5
- positive tumors / tumors tested ([4]; Seminoma): 0/10
- positive tumors / tumors tested ([4]; Synovial sarcoma): 0/5*
- positive tumors / tumors tested ([4]; Urinary bladder (tcc, sqcc, adeno)): 3/10*
- tumors with positive staining ([4]; head and neck tumors): 64%
- tumors with positive staining ([4]; lung carcinomas): 50%
- tumors with positive staining ([4]; urinary tumors): 30%
- Immunoreactivity ([5]; glioblastoma #1, EGFR Amp. A, 5′ MUT): ++++ (++++=>75%)
- Immunoreactivity ([5]; glioblastoma #2, EGFR Amp. N, WT): ++++ (++++=>75%)
- Immunoreactivity ([5]; glioblastoma #3, EGFR Amp. N, A2): ++++ (++++=>75%)
- Immunoreactivity ([5]; glioblastoma #4, EGFR Amp. N, WT): ++++ (++++=>75%)
- Immunoreactivity ([5]; glioblastoma #5, EGFR Amp. N, 5′ MUT): ++++ (++++=>75%)
- Immunoreactivity ([5]; glioblastoma #6, EGFR Amp. A, WT): ++++ (++++=>75%)
- Immunoreactivity ([5]; glioblastoma #7, EGFR Amp. N, 5′ MUT): ++++ (++++=>75%)
- Immunoreactivity ([5]; glioblastoma #8, EGFR Amp. A, 5′ MUT): ++++ (++++=>75%)
- Immunoreactivity ([5]; glioblastoma #9, EGFR Amp. A, WT): ++++ (++++=>75%)
- Immunoreactivity ([5]; glioblastoma #10, EGFR Amp. N, WT): neg.
- Immunoreactivity ([5]; glioblastoma #11, EGFR Amp. A, 5′ MUT): ++ (++=25-50%)
- Immunoreactivity ([5]; glioblastoma #12, EGFR Amp. A, 5′ MUT): ++ (++=25-50%)
- Immunoreactivity ([5]; glioblastoma #13, EGFR Amp. N, WT): ++++ (++++=>75%)
- Immunoreactivity ([5]; glioblastoma #14, EGFR Amp. Nd, nd): neg.
- Immunoreactivity ([5]; glioblastoma #15, EGFR Amp. N, WT): ++ (++=25-50%)
- Immunoreactivity ([5]; glioblastoma #16, EGFR Amp. N, nd): neg.
- Immunoreactivity ([5]; glioblastoma #17, EGFR Amp. N, WT): neg.
- Immunoreactivity ([5]; glioblastoma #18, EGFR Amp. A, 5′ MUT): ++++ (++++=>75%)
- Immunoreactivity ([5]; glioblastoma #19, EGFR Amp. N, WT): ++++ (++++=>75%)
- Immunoreactivity ([5]; glioblastoma #20, EGFR Amp. N, WT): neg.
- Immunoreactivity ([5]; glioblastoma #21, EGFR Amp. N, WT): ++++ (++++=>75%)
- Immunoreactivity ([5]; glioblastoma #22, EGFR Amp. N, WT): neg.
- Immunoreactivity ([5]; glioblastoma #23, EGFR Amp. N, 5′ MUT): ++++ (++++=>75%)
- Immunoreactivity ([5]; glioblastoma #24, EGFR Amp. A, WT): ++++ (++++=>75%)
- Immunoreactivity ([5]; glioblastoma #25, EGFR Amp. N, WT): neg.
- Immunoreactivity ([5]; glioblastoma #26, EGFR Amp. A, 5′ MUT): ++++ (++++=>75%)
- Immunoreactivity ([5]; glioblastoma #27, EGFR Amp. N, WT): neg.
- Immunoreactivity ([5]; glioblastoma #28, EGFR Amp. N, WT): neg.
- Immunoreactivity ([5]; glioblastoma #29, EGFR Amp. N, WT): neg.
- Immunoreactivity ([5]; glioblastoma #30, EGFR Amp. N, WT): ++++ (++++=>75%)
- Immunoreactivity ([5]; glioblastoma #31, EGFR Amp. N, nd): neg.
- Immunoreactivity ([5]; glioblastoma #32, EGFR Amp. N, 5′ MUT): +++ (+++=50-75%)
- Immunoreactivity ([5]; glioblastoma #33, EGFR Amp. A, 5′ MUT): ++++ (++++=>75%)
- Immunoreactivity ([5]; glioblastoma #34, EGFR Amp. N, WT): +++ (+++=50-75%)
- Immunoreactivity ([5]; glioblastoma #35, EGFR Amp. A, 5′ MUT): neg.
- Immunoreactivity ([5]; glioblastoma #36, EGFR Amp. A, 5′ MUT): ++ (++=25-50%)
- Immunoreactivity ([5]; glioblastoma #37, EGFR Amp. A, 5′ MUT): + (+=5-25%)
- Immunoreactivity ([5]; glioblastoma #38, EGFR Amp. N, WT): neg.
- Immunoreactivity ([5]; glioblastoma #39, EGFR Amp. N, 5′ MUT): neg.
- Immunoreactivity ([5]; glioblastoma #40, EGFR Amp. A, WT): ++++ (++++=>75%)
- Immunoreactivity ([5]; glioblastoma #41, EGFR Amp. N, WT): neg.
- Immunoreactivity ([5]; glioblastoma #42, EGFR Amp. A, WT): ++++ (++++=>75%)
- Immunoreactivity ([5]; glioblastoma #43, EGFR Amp. nd, nd): neg.
- Immunoreactivity ([5]; glioblastoma #44, EGFR Amp. N, WT): neg.
- Immunoreactivity ([5]; glioblastoma #45, EGFR Amp. N, WT): neg.
- Immunoreactivity ([5]; glioblastoma #46, EGFR Amp. N, nd): neg.
- positive cases / glioblastomas ([5]; panel of 46): 27/46
- effect on survival [6]: did not extend survival
- Endo H sensitivity of the precipitated EGFR [7]: sensitive to Endo H
- Binding of biotin-labeled 806 [8]: None
